Measured values reported in PMC7126681.

How the values were obtained:
[1] = target: His-tagged griffithsin (SeMet-labeled, E. coli-expressed) (Griffithsia sp.) (UniProt P84801); assay: crystal structure
[2] = target: plant-expressed griffithsin (Griffithsia sp.) (UniProt P84801); assay: crystal structure

With “His-tagged griffithsin (SeMet-labeled, E. coli-expressed) (from UniProt P84801 1-121) (natural protein)” the stoichiometry N [1] was 2.

In the case of “plant-expressed griffithsin (from UniProt P84801 1-121) (natural protein)”, the stoichiometry N [2] is reported as 2.
